Source: patent US20210324374, “COMPOSITIONS AND METHODS FOR SCREENING APTAMERS” (Chan Zuckerberg Biohub, Inc., published 2021)

Molecular target: VEGF (vascular endothelial growth factor) (UniProt P15692-4 P15692-4:27-191)
Assay: N2A2 flow-cell fluorescence, natural DNA
Conditions: tags: Dylight 650 NHS labelled; R&D Systems; chain copies: 2
Source text: We used N2A2 to measure the VEGF binding affinity of all sequences in these pools simultaneously. We performed three separate experiments: 1) VEGF binding to the natural DNA pools, 2) VEGF binding to non-natural DNA modified with tryptophan, and 3) VEGF binding to non-natural DNA modified with tyrosine. In addition to the six aptamer pools described above (R0-R5), we included three other DNA sequences on the flow cell for each experiment: (1) a known “fiducial mark” sequence with a fluorescently-labeled complement for intensity calibration, (2) a “positive control” sequence based on a published aptamer known to bind to VEGF, and (3) a “negative control” sequence known not to bind to VEGF. The same input DNA stocks and labeled VEGF protein were used for all three experiments, but new sequencing cartridges and flow cells were used for each separate experiment. Other details of experimental setup of the sequencing cartridge, protein titrations, and software and hardware modifications have previously been described in the provided grant document and manuscript. VEGF protein was labeled with Dylight647 fluorophore to enable imaging on the N2A2.

Chain of VEGF (vascular endothelial growth factor) (P15692 other isoform, or with tags, fused parts or gaps): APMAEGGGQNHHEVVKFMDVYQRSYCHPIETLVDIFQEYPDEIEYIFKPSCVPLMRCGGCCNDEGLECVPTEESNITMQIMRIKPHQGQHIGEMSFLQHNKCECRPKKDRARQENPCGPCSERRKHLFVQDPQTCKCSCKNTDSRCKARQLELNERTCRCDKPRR

B1: K SL2-B positive control (ssDNA)
DNA: AGCAGCACAGAGGTCAGATGAATTGGGCCCGTCCGTATGGTGGGTCCTATGCGTGCTACCGTGAA
binding result: binds
